Data taken from PMC3634016 (2013).

Target: Ca^2+-CaM pre-bound to the mammalian Cav1.2 IQ peptide (rat | human, UniProt P0DP29 1-149)
Experiment: ITC; Ca2+; CaM pre-bound to Cav1.2 IQ

SWQAAIDAARQAKLMGS [mammalian NSCaTE_(Cav1.2) peptide]
Kd: 1.8 µM
